The data set in a line: soluble on expression in E. coli; label from the status in PepcDB or PDB records.
As for “MSVDKYGKVYLIGAGPGNPNYLTKKAERLIREADVILYDRLVNPLILQYANLTTEIIDVGKKPYAKHIQQEKINECIVEAARRYNKVVRLKGGDPAIFGRVQEEVDTLNNFNIAFEIVPGVTSASAAVATMQTGLTMRAVAKSVTFSTGHFKDSEENEVDVNALVNGGTLAIYMGVKRLGKIIAQIQQYTDIDYPIAIVFQASCFNEFVVKGRLSNIVGKLEHYAIEAKPGICIIGEVVGYTENVSTTSNPTQQFYVVSGSRHDALMLCEHLYDEGYGCLLNPNDTSNGTYHSSQYDYYDAFIKQQENVTYISTDRADANTVLCH”, the “soluble on expression in E. coli” value is “not soluble”.

In the case of “GPGSMSLASPSSLPPIALATQRLRTFAAQEEQAHGLTTSTALEEWATQSFEAETERINRELVQRRSQASVTFLPALYMRGRDPAADETTRLLHSTCKAFELDLRFKEIEKLDEMHAHLWTLLSAGDRTSISMEAYEQLLHDFNEWAAEHYGAQLLPPPSTVWDVSEDEDECILCRREVKEDDHEKSGGGNSSPSMSPLRPPVSLARPLSASTPPVLAATKAAPNDAPFTSGTRGASWDAVLQHVKRYRDQQRSDTSASASSFMRSHAHFEHLLRLAEDQPALGNVLYLCSVPPPRPDVQLFLSCPRNAERAVEIAAIYQTFAKQVSLVKCEAELIMWDSNNDGRLSEDEVENYVRDLAPRIAALQAMSKDMLPFYCCTVSRRLFWDLDPGNRGVLRIHSLLHSGIMDEWVSLQLMTEDDTQNWFGALVTQQLYNKFVLLDTRNTGTLNVENLRGYKKGLPTVLDDGLPPDVSPLCSLFIDRYFETNTLMTRSEMDYRKFVDFVIAVELLPQCSRPYFFWNILDMEGTGVLTPMIVNQFFRETHAKLVAAGLDVPSRETVVQEVFDLIEKAESLLITRDEFVRSPQAGLFVALLIDCLSFWTYENREQR”, the “soluble on expression in E. coli” value is “not soluble”.

Take “SKLPKGTRSSVYFAQHPEKEPLPSRQEVKQTPVIMAKIKGPGPAKYLRPSCTGYIDHDISMFKAPAYTLHSRHSEKRMVCHSSPGPCYLLDPKITRFGMSSCPQVPMEERISNLRLNPTLASCQYYFEKIHPPGERRAPQYTFGYRRPYRVMDLNPAPNQYQMPLLLGPNTPVSRAAPCYSLASRDKNWFYKEDVAGGPGPTTYARPEPSIYQNRSPTYSMAKRFAYPLDLTPRPGPGSHEVQQVTVHKPHIPAFTMGIKHSLHLCPLVIDIRD”: the “soluble on expression in E. coli” value was “not soluble”.

On to “MDTVNDSFSPGSSRPSPATLSREDCWSEEATFTLIQAWGNRYVDLSRGNLRQKHWQEVANAVNDRHYNTGRNVSAAKSQPYRTDVQCKNRIDTLKKKYKVEKARVSESNPGAYISPWPFFSALDDLLRESFPTSSNPDSTDNIPHQRLSLPMSINPVPVAPRSAIPRRPATSPAIIPHAGDDLLGFRGNLNAFAAAAAAAACPASEDDSEGSRSRSSGRSGSNKKRERKIEKKQGYKEVADAIERLGQIYERVEEKKRKEMVELEKQRMRFAKELECHRMQLFTEMQVRLHKLRRTSGSKGPTSSASAGET”, for which the “soluble on expression in E. coli” value was “soluble”.

Regarding “MGSSGGGGSGGGGVTADIGTGLADALTAPLDHKDKGLKSLTLEDSISQNGTLTLSAQGAEKTYGNGDSLNTGKLKNDKVSRFDFIRQIEVDGQLITLESGEFQVYKQSHSALTALQTEQEQDPEHSEKMVAKRRFRIGDIAGEHTSFDKLPKDVMATYRGTAFGSDDAGGKLTYTIDFAAKQGHGKIEHLKSPELNVDLAVAYIKPDEKHHAVISGSVLYNQDEKGSYSLGIFGEKAQEVAGSAEVETANGIHHIGLAAKQ”, the “soluble on expression in E. coli” value is listed as “soluble”.

“MRVVAAHENLDFDALGSMVLAGRLYPGSVLALVGGVEGVLREVLPLLEDRLDLVPASEIPLDRVREVVLVDNARPERLGPLAALVGRVPFLVYDHHPRTPGDVPAVGGRVAPVGATVSLLVPLLLERGVALDPLEATLAYAGLWEDTGGFSFPSTTPEDLEAAGHLLRQGAEVARVRDWVRPRFGEEAREILSQLLKTAHLVERKGFRLLVARAREKGYVPALAPLAHTLLDLYEADGVLLALRLGGDTLLIARSKARLDVGRWLGALGGGGHARAAFARVRGKGRALARLLETLEAFLDPEPTLGQAMTAPVETLRPTSVREALRQLEERGYGAMPVVEPLGEGVRVLGLARRRDLRKAVRLGFGDHPVEGFLVRAVVLPPSTPLSQVEPRLREAGGRVLVGERAGEGWRLLGIYTRTDLYRSAPRPEPTLAERVLKALPSGVFRVVEALREAFPEGVYLVGGAVRDALLGRSGPDLDLAVGPGVEVARVAQFLVDRFGGSYGLHYAFGTARVRLPFGLVVDLAESREEVYPYPGALPEVRRAPIARDLERRDYSVNAMAVDLGGLAFLDPYGGLRDLEARLLRPLHPLAFVEDPTRVVRGARLAARLGFRFAEEVPRLLAPALLPEVVAGASRSRLREELLLTLEEEAFYRALALLAELGALKALYGLDLPPEAPFLRLRAEEGLGEARLLLLLFHQKDPLERAAWLALPGRLREGLALLLAASRGEEVPKEALGREPLRAAFLALFPEKEAWLKAERRVLMGRDLLKLGLKPGPKVGEILRRVAEARRRGEVRSFEEELALARKLLGDGTLALPE”: the “soluble on expression in E. coli” value is recorded as “soluble”.

Take “MSLKEVRYAMIHDESRCNGCNICARACRKTNHVPAQGSRLSIAHIPVTDNDNETQYHFFRQSCQHCEDAPCIDVCPTGASWRDEQGIVRVEKSQCIGCSYCIGACPYLVRYLNPVTKVADKCDFCAESRLAKGFPPICVSACPEHALIFGREDSPEIQAWLQDNKYYQYQLPGTGKPHLYRRFGQHLIKKENEGHHHHHH”: the “soluble on expression in E. coli” value was “not soluble”.

“MRGSVSQEEVKKWAESLENLINHECGLAAFKAFLKSEYSEENIDFWISCEEYKKIKSPSKLSPKAKKIYNEFISVQATKEVNLDSCTREETSRNMLEPTITCFDEAQKKIFNLMEKDSYRRFLKSRFYLDLTNPSSCGAEKQKGAKSSADCTSLVPQCAHHHHHHP”: the “soluble on expression in E. coli” value is “soluble”.

With “MLAKSIPLGIYEKALPAGECWLERLKLAKALGFDFVEMSLDETDARLARLDWSPEQRLALVKAVAETGVRVPSMCLSAHRRFPLGSEDDAVRHQGLEIMRKAIQLAQDVGIRVIQLAGYDVYYQQANDETRRRFRDGLKQSVEMASRAQVTLAMEIMDYPLMNSISKALGYAHYLNNPWFQLYPDIGNLSAWDNDVQMELKAGSGHIVAVHVKDTKPGVFKNVPFGEGVVDFERCFETLKQTGYCGPYLIEMWSETSADPLAEVAKARDWVKARMARAGLMEAA”, the “soluble on expression in E. coli” value was “not soluble”.

Take “PPLVANQVVTCPDKKSTAAVILTPTENHFTLKCPKTALTEPPTLAYSPNRQICPAGTTSSCTSKAVTLSSLIPEAEDSWWTGDSASLDTAGIKLTVPIEKFPVTTQTFVVGCIKGDDAQSCMVTVTVQARASSVVNNVARCSYGADSTLGPVKLSAEGPTTMTLVCGKDGVKVPQDNNQYCSGTTLTGCNEKSFKDILPKLTENPWQGNASSDKGATLTIKKEAFPAESKSVIIGCTGGSPEKHHCTVKLEFAG”: the “soluble on expression in E. coli” value is recorded as “soluble”.

Regarding “MTTVSNIHHASKPRLNTLLVTARDSPYDTTLPARTPVDFCRPGSQWRVMDIDLVLAPVDGSDQSERAAEYAIAVAERYDADLHLLFVIDERLHQDIDSGDVSATAIAEEHQAFTESIRDRFRDAHDGVFETSSATAFSETRLMQTPGSVVLDVAEDLDSDFIVVPREEGSEEAVGRAAIYVIEYASQPVLTV”, the “soluble on expression in E. coli” value is on record as “not soluble”.

As to “MAHHHHHHMVLLSVKGTTFPDEFVYECTAATAIYPDLARNLCHIQNSRHLVKLILLSARELLDEARCKKRVEVVDEGPGDGGANSYSALLTEYGAIIESTSARLKDRVVPVSLEEFDQYADRLRELTERLYPEECCVPEGGRSAAVDRLYQLHDDPNLDEDRRLAVYHCRAILDPQWKSHEQQKEDKAGLWFCGKLMEDTIARYSGKNEKSRLTVKVHPKDSVPPSTEPRISYDDQRALYERMRTRREEYKGLEESELRDRVVAQARGKVALTAPAAASPAMSMDLSRLRPICPKREEHEVN”, the “soluble on expression in E. coli” value is “not soluble”.

Take “MTAALPDLSFHPAWHAQLELAYARAGDATRPVTRRHAGPLRVQKHLYAEGPEVCQHILVHPPGGIAGGDSLAFDVRLGERAWAQLTSPGAAKWYRAACPARQTLEIHLEPGATLEWLPQESIVFAGAQAELETRIQLRGDARLFYWDMVALGRPASGERFASGHFVAALDIRRDDRLLWHERQRIDGGDRLLDSPIGLAGHPVLATLVASGEIDTDLLQRCRALPCAGRGNLSQLPGGLLVARCLADEALHARAWLIELWRLLRPALLGREAVPPRIWSTLEHHHHHH”: the “soluble on expression in E. coli” value is reported as “not soluble”.

“MGHHHHHHSHMDVVDPDIFNRDPRDHYDLLQRLGGGTYGEVFKARDKVSGDLVALKMVKMEPDDDVSTLQKEILILKTCRHANIVAYHGSYLWLQKLWICMEFCGAGSLQDIYQVTGSLSELQISYVCREVLQGLAYLHSQKKIHRDIKGANILINDAGEVRLADFGISAQIGATLARRLSFIGTPYWMAPEVAAVALKGGYNELCDIWSLGITAIELAELQPPLFDVHPLRVLFLMTKSGYQPPRLKEKGKWSAAFHNFIKVTLTKSPKKRPSATKMLSHQLVSQPGLNRGLILDLLDKLKNPGKGPSIGDIEDEEPELPPAIPRRIRSTHRSSSLGIPDADCCRRHMEFRKLRGMETRPPANTARLQPPRDLRSSSPRKQLSES”: the “soluble on expression in E. coli” value is reported as “soluble”.

Turning to “MLKIGIVGCGAIGNFITKKVLDGTIKNAKISAVYDRNFDKAKTLSERTGAKICSSIDDLVKEDLDLVVEAASIKAVEEIAEKSLINNKDVLIMSVGALADKKLFLKLRDLAKTVGRKIYLPSGAIGGLDAIKALRLGEIEEVVLKTTKPVAALEDALKNLGYKPEDIKNPVIVFEGDVFKAIKEFPANINVSVTLSIAAEFPAKVVIVADPNAKLNKHELFVKSSIGTLRVCIENVPFEENPRTSALAAYSAVRLIRDLAEPVKVGT”, the “soluble on expression in E. coli” value was “soluble”.

As to “SLSPAMSFLKSFPPPGSADGLRLQQPDTEAVLNGKGLGTGTLYIAESRLSWLDGSGLGFSLEYPTISLHAVSRDPNAYPQEHLYVMVNAKLGEESKEPLSDEDEEDNDDVEPISEFRFVPSDKSALEAMFTAMCECQALHPDPEDEDSDDYDGEEYDVEAHEQGQGDIPTFYTYEEGLSHLTAEGQATLERLEGMLSQSVSSQYNMAGVRTEDSVRNYEDGMEVETTPTVAGQFEDADVDH”, the “soluble on expression in E. coli” value was “soluble”.

“GPLGSMDSPPEGYRRNVGICLMNNDKKIFAASRLDIPDAWQMPQGGIDEGEDPRNAAIRELREETGVTSAEVIAEVPYWLTYDFPPKVREKLNIQWGSDWKGQAQKWFLFKFTGQDQEINLLGDGSEKPEFGEWSWVTPEQLIDLTVEFKKPVYKEVLSVFAPHL”: the “soluble on expression in E. coli” value was “soluble”.

As to “MSLENKFARTVLGDIPVEKLGITDCHDHFIKNGGPEVEEHIDFLMLNVDASIKEFKEFIDRGGSTIVTMDPPNVGRDVLKTLEIANAVKNLGGNVIMSTGFHKAKFYDKYSSWLAVVPTEEIVKMCVAEIEEGMDEYNYNGPVVKRSKAKAGIIKAGTGYGAIDRLELKALEVAARTSILTGCPILVHTQLGTMALEVAKHLIGFGANPDKIQISHLNKNPDKYYYEKVIKETGVTLCFDGPDRVKYYPDSLLAENIKYLVDKGLQKHITLSLDAGRILYQRNYGLTKGKQTFGLAYLFDRFLPLLKQVGVSKEAIFDILVNNPKRVLAFDEKRNFDPLKVSKEVLELKKELNLNEGHHHHHH”, the “soluble on expression in E. coli” value is recorded as “soluble”.

For the sequence “SDKVINPQVAWAQRSSTTDPERNYVLITVSIADCDAPELTIKPSYIELKAQSKPHVGDENVHHYQLHIDLYKEIIPEKTMHKVANGQHYFLKLYKKDLESEYWPRLTKEKVKYPYIKTDFDKWVDADEQDEVEA”, the “soluble on expression in E. coli” value is reported as “soluble”.

With “MAVSLSKGGNVSLSKEAPGLTGIVVGLGWDPRATDGQAFDLDGSVFLLDAGGKVRGDSDFIFYNNKTSSDGSVEHTGDNTTGAGEGDDETVKIDLSKVPADVDKIAVCVTIHEAETRNQNFGQVSKAYIRVMNQTGGAEIARYDLSEDASTDTAMIFGEVYRHGSDWKFKAVGQGYAGGLAPLARNYGVNV”, the “soluble on expression in E. coli” value was “soluble”.
